This note sets out measurements from patent US20080306243A1, “Hla-Binding Peptide, and Dna Fragment and Recombinant Vector Coding for Said Hla-Binding Peptide” (NEC CORPORATION, priority 2005, published 2008).

Where two headings read alike, the source gives them in different places.

Assay [1] addresses HLA-A0206 molecule, which is a product of the HLA-A*0206 gene (human). Description: flow cytometry; peptide stabilisation of empty HLA-A0206 on RA2.6 cells (TAP-deficient), stained with mAb 17A10 or 17A12.
Assay [2] concerns the target HLA-A2402 molecule, which is a product of the HLA-A*2402 gene (human). Description: flow cytometry; reassociation of peptide, added β2m and HLA-A2402 on acid-stripped C1R-A24 cells, stained with mAb 17A12. A general note: Flow cytometry measures light scatter and fluorescence of single cells or particles in a stream.
Assay [3] deals with HLA-A0201 molecule, which is a product of the HLA-A*0201 gene (human). In words: flow cytometry; reassociation of peptide, added β2m and HLA-A0201 on acid-stripped JY cells, stained with mAb BB7.2. Particulars: remark: other sources report otherwise.
[4] abbreviates: remark: other sources report otherwise.

In the case of LVASRGRAV (modifications not checked) [SEQ ID NO 22], in assay [1], the -log Kd is 5.25 -log Kd.
The same measure, in the same setting: then GVLVHPQWV (modifications not checked) [SEQ ID NO 19], with 6.28 -log Kd.
Regarding WVPVVFLTL (modifications not checked) [SEQ ID NO 2], the -log Kd in assay [2] is 7.29 -log Kd.
With DLPTQEPAL (modifications not checked) [SEQ ID NO 27], the -log Kd in assay [1] is 5.26 -log Kd.
Take MLLRLSEPA [SEQ ID NO 17]: the -log Kd in assay [3] is 6.2 -log Kd.
WVLTAAHCI [SEQ ID NO 12]: the -log Kd in assay [2] (setting [4]) was 4.63 -log Kd.
Still for that read-out and setting: then DLPTQEPAL (modifications not checked) [SEQ ID NO 4], with 5.23 -log Kd.
As for WVPVVFLTL (modifications not checked) [SEQ ID NO 24], the -log Kd in assay [1] is 6.74 -log Kd.
